Our source for the Kd and SeFtsZ retrieved from the pellet fraction with GTP after mixing with SeSepF (sedimentation assay of polymerization; 16% without SeSepF) values is article PMC11987601.

Values joined by “and” are separate entries in the source; they are usually repeats but may differ in a detail not shown here. Equal values may be shown once.

In assay [1] the target is His6-SeSepF (Spiroplasma eriocheiris SepF) (Spiroplasma eriocheiris). Nature of the assay: BLI; His6-SeSepF immobilised on Ni-NTA biosensor tips (10 ug/ml), SeFtsZ or SeFtsZ L272E as analyte (0-100 ug/ml); Octet N1; 50 mM Tris-HCl pH 7.4, 100 mM KCl, 10 mM MgCl2, 0.02% Tween-20; no nucleotide (apo).
The target is the same in assay [2]. Nature of the assay: BLI; as a1, in the presence of GTP. For orientation: BLI is a label-free optical method that tracks binding on a fibre tip over time.
In assay [3] the target is His6-SeFtsZ (Spiroplasma eriocheiris FtsZ) (Spiroplasma eriocheiris).

Sequence of His6-SeSepF (Spiroplasma eriocheiris SepF) (Spiroplasma eriocheiris) (partner, as listed by the source): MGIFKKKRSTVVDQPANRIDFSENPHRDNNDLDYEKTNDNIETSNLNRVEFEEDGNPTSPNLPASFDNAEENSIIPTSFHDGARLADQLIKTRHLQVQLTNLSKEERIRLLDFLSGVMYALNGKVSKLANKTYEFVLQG

In the case of “Spiroplasma eriocheiris FtsZ, His-tag removed (from UniProt A0A0H3XMR3 1-411) (natural protein)”, the Kd in assay [1] was 1040 nM and 1130 nM; in assay [2] it was 53900 nM.

Regarding “His6-SeSepF (Spiroplasma eriocheiris SepF) (natural protein)”, the SeFtsZ retrieved from the pellet fraction with GTP after mixing with SeSepF (sedimentation assay of polymerization; 16% without SeSepF) in assay [3] came out at 28%. “SeFtsZ L272E mutant (from UniProt A0A0H3XMR3 1-411) (natural protein)”: the results for the Kd in assay [1] and in assay [2] were 980 nM and 700 nM, respectively.

For orientation: Kd means the constant that tells how readily two partners part at equilibrium.
